A short description of the data set: yeast display, Sf9 membrane polyspecificity reagent, FACS + sequencing; frameworks hold sequencing errors. A digest of the protocol: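 Using colony PCR, genes from sorted yeast display clones were amplified, then sequenced on MiSeq at 2 × 250 and filtered by CDR length. The clones had been stained with 10% biotinylated, detergent-solubilized Sf9 membrane reagent for 1 hour at 4 °C and sorted by FACS into low and high (top ~1%) gates on anti-HA and streptavidin fluorescence. Polyreactivity labels come from the gate of origin.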
“QVQLVESGGGLVQAGGSLRLSCASSGFTFYIYVMGWYRQAPGKEREWVAAISSRGGSTYYADSVKGRFTISRDNAKNTVNSQMNSLKPEDTAVYYCNAVHYVLYGDYDYWGQGTQVTVSS”: the “polyreactivity (PSR sort gate)” value is recorded as “high polyreactivity”.
In the case of “QVQLVESGGGLVQAGGSLRLSCASSGFTINWNDMGWYRQAPGKERELVAAISGGASTYYADSVKGRFTISRDNAKNTVYLQMNSLKPEDTAVYYCAADLDEWGYLFDYWGQGTQVTVSS” it was “low polyreactivity”.
The result for “QVQLVESGGGLVQAGGSLRLSCASSGFTLYGYTKGWYRQAPGKERELVAAISGSGGRTYYADSVKGRFTISRDNAKNTVYLHMNTLKPEDNAVYYCAADSRGTCDGYDYWGQGTQVTVSS” reads “high polyreactivity”.
For the sequence “QVQLVESGGGLVQAGGSLRLSCASSGITFDKYAMGWYRQAPGKERELVAAISGSDGSTYYADSVKGRFTISRDNAKNTVYLQNNSLKPEDTAVYYCAAESEYAGTYEYDYWGQGNQVTVSS”, the “polyreactivity (PSR sort gate)” value is on record as “low polyreactivity”.
As to “QVQLVESGGGLVQAGGSLRLSCASSGITFILYAMGWYRQAPGKDRELVASITSGGSTDYADSVKGRFTISRDNAKNTVYFQMNSLKPEDTAVYYCAARYVYPYWYGDYYWGQGTQVTVSS”, the “polyreactivity (PSR sort gate)” value is “low polyreactivity”.
The result for “QVQLVESGGGLVQAGGSLRLSCASSGLIFYHYAMGWYRQAPGKERELVAAISWRGGTTYYADSVKGRFTISSDNAKNTVYLQMNSLKPEDTAVYYCNALLRSPGLGYDYWGQGTQVTVSS” reads “high polyreactivity”; that for “QVQLVESGGGLVQAGGSLRLSCASSGLTFWPYVKGWYRQAPGKERELVAAIEDTGITYYADSVKGRFTISRDNAKNTVYLQMNSLTPDDTAVYYCATDWDYYFPWIYPSDAGPEDGYWGQGTQVTVSS”, “low polyreactivity”.
In the case of “QVQLVESGGGLVQAGGSLRLSCASSGNTFKYDAMGWYRQAPGKERELVAAITWNGARTYYADSVKGRFTISRDNANYTGYLQMNRLKAEVTAVYYCNARQGYRFDYWGQGTQVSVSS” it was “high polyreactivity”; in that of “QVQLVESGGGLVQAGGSLRLSCASSGRIFDGYAMVWYRQAPGKERELVATISSGGSTYYADSVKGRFTISRDNAKNTVYLQMNSLKPEDTAVYYCAADSWVQFDYWGQGTQVTVSS”, “low polyreactivity”.
With “QVQLVESGGGLVQAGGSLRLSCASSGRIFDYNAKGWYRQAPGKERELVAAINSGGSTYADSVKGRFTISRDNAKNTVDLQMNSLKPEDTAVYYCAKSLGQTDWEYDSWGQGTQVTVSS”, the “polyreactivity (PSR sort gate)” value is “low polyreactivity”.
The result for “QVQLVESGGGLVQAGGSLRLSCASSGRIFFTNAMGWYRQAPGKERELVAAIRSSGGRTYYADSVKGRFTISRDNAKNTVYLQMNSLKPEDTAVYYCNVVDGRHISHYNYWGQGTQVTVSS” reads “high polyreactivity”; that for “QVQLVESGGGLVQAGGSLRLSCASSGRIFGLYAMGWNRQAPGKERELVAAISRGGGSTYYADSVKGRFTISRDNAKNTVYLQMNSLKPEDTAVYYCATGLGYFSRLDYWGQGTQVTVSS”, “low polyreactivity”.
In the case of “QVQLVESGGGLVQAGGSLRLSCASSGRIFGTYAMGWYRQAPGKERELVARIRTSGSTNYADSVKGRFTISRDNAKNTVYLQMNSLKPEDTAVYYCAADRRYYSAYEYWGQGTQVTVSS” it was “high polyreactivity”; in that of “QVQLVESGGGLVQAGGSLRLSCASSGRIFGVYAMGWYRQAPGKERELVAAITRGASTYYADSVKGRFTISRDNAKNTVYLQMNSLKPEDTAVYYCAVSQDRGIYRKYDYWGQGTQVTVSS”, “high polyreactivity”; in that of “QVQLVESGGGLVQAGGSLRLSCASSGRIFRVNGMGWYRQAPGKESELVATITGSGGSTYYADSVKGRFTISRDNAKNTVYLQMNSLKPEDTAVYYCAAVSYWPTDRYYSWGQGTQVTVSS”, “low polyreactivity”.
On to “QVQLVESGGGLVQAGGSLRLSCASSGRIFRYNTMGWYRPAPGKERELVADITSSDSSTYYADSVKGRFTISRDNAKNTVDLQMNSLKPEETAVYYCAARDSGYGWRYSYWGQGTQVTVSA”, for which the “polyreactivity (PSR sort gate)” value was “low polyreactivity”.
The result for “QVQLVESGGGLVQAGGSLRLSCASSGRIFWRNTMGWYRQAPVKETEFVASINGSGGSTSYADSVKGRFTISRDNAMNTVYLQMISLKPEDTEVDYCATDVTYQDVQLDYWGQRTQVTVSS” reads “low polyreactivity”; that for “QVQLVESGGGLVQAGGSLRLSCASSGRIFYYNAMGWYRQAPGKERELVAAISKRGGITSYADSVKGRFTISRDNAKNTVYLPMNSLKPEDTAVYYCAADLVPWRGGYYYWGQGTLVTVSS”, “high polyreactivity”.
In the case of “QVQLVESGGGLVQAGGSLRLSCASSGRNFCIYGMAWYRQAPGKERELVAAISYDSGSTYYADSVTGRFTISRDNAKNTVYLQMNSLNPEDTAVYYCAAEWGLVIYSTYGYDYWGQGTQVTVSS” it was “low polyreactivity”; in that of “QVQLVESGGGLVQAGGSLRLSCASSGRTFFRNPMGWYRQAPGKERELVAAISKRGGSTYYADSVKGRFTISRDNAKNTVYLQMISLSPEDTAVYYCNADPRTVGLDYWGQGTQVTVSS”, “high polyreactivity”; in that of “QVQLVESGGGLVQAGGSLRLSCASSGRTFLINAMGWYRQAPWKERELVATISRSGGSTYYADSVKGRFTISRDNAKITVYLQMNSLKPEDTAVYYCAALVRIGYYYWGQGTQVTVSS”, “high polyreactivity”.
In the case of “QVQLVESGGGLVQAGGSLRLSCASSGRTFRYYAMGWYRQAPGKERELVAAIRSGGITNYADSVKGRFTISRDNAKNTVYLQMNSLKPEDTAVYYCAVETPSTWFSGWGYDYDYWGQGTQVTVSS” it was “high polyreactivity”; in that of “QVQLVESGGGLVQAGGSLRLSCASSGRTFTHYAMGWYRQAPGKERELVASISDGGRTHYADSVTGRFTISRDNAKNTVYLQMNSLKPEDTAVYYCATDRYPTRRYDYWGQGTQVTVSS”, “low polyreactivity”; in that of “QVQLVESGGGLVQAGGSLRLSCASSGRTFVWNAMGWYRQAPGKERELVAAIDWSGGSTYYADSVKGRFTISRDYAKITVYLQMNSLKPEDTAVYYCAKEYWYRALWYNYWGQGTQVTVSS”, “high polyreactivity”.
For the sequence “QVQLVESGGGLVQAGGSLRLSCASSGRTFYQNAMGWYRQAPGKESEFVAAITGGTGSTHYADSVKGRFTISRDNAKNTVYLQMNSLKPEDTAVYYCATRYLFGFSRYDYWGQGTQVTVSS”, the “polyreactivity (PSR sort gate)” value is on record as “low polyreactivity”.
In the case of “QVQLVESGGGLVQAGGSLRLSCASSGSIFAYNTMGRYRQAPGKERELVAAITGRAGSTYYADSVKGRFTISRDNAKNTFYLQMNSLKPEDTAVYYCAAEYRFAFPLWLDYWGQGTQVTVSS”, the “polyreactivity (PSR sort gate)” value was “high polyreactivity”.
The result for “QVQLVESGGGLVQAGGSLRLSCASSGSIFGSYAMGWYRQPPGKESELDAAITGIGGSTYYADSVKGRFTISRDNAKNTVYLQMNSLKPEATAVYYCATRDRYRAPVVGGNYWVQGTQVTVSS” reads “high polyreactivity”; that for “QVQLVESGGGLVQAGGSLRLSCASSGSIFKANGMGWYRQAPGKEREFVAAITRSGATTYYADSVKGRFTISRDNAKNTVYLQMNSLKTEDTAVYYCNVKAWRDLYYAGFDYWGQGTQVTVSS”, “low polyreactivity”; that for “QVQLVESGGGLVQAGGSLRLSCASSGSIFLYNAMGWYRQAPGKERELVAVINGRGGTYYADSVKGRFTISRDNAKNTVYLQMNSLKPEDTAVYYCATGFPPSAWYDSVRFEDRDSWGQGTQVTVSS”, “low polyreactivity”.
In the case of “QVQLVESGGGLVQAGGSLRLSCASSGSIININVMGWYRQAPGKERELVAAINSGTSTYYADSVKGRFTFSRDNAKITVYLKMNSLKPEDTAVYYCAARNLFTGRRLFYFWGQGTQVTVSS” it was “low polyreactivity”.

The values are drawn from the nanobody polyreactivity screen of Harvey et al. (2022).
